From article PMC2964155 (Virology, 2010)
“And” between values parts separate entries of the source, which are not always exact repeats. Equal values may be shown once.

Legend:
[1] = biological target: Hepatitis B Virus (HBV) capsid protein Cp183-EEE (S155E/S162E/S170E) (Hepatitis B Virus, adyw); assay: negative-stain electron microscopy
[2] = biological target: Hepatitis B Virus (HBV) capsid (core) protein Cp183, adyw wildtype (Hepatitis B Virus, adyw); assay: negative-stain electron microscopy
[3] = biological target: the molecule itself; assay: SEC-MALS

With “Hepatitis B Virus (HBV) capsid protein Cp183-EEE (S155E/S162E/S170E) (natural protein)” the stoichiometry N [1] was 240 and 180.

For “Hepatitis B Virus (HBV) capsid (core) protein Cp183, adyw wildtype (natural protein)”, the stoichiometry N [2] was 240 and 180.

B1: Brome Mosaic Virus (BMV) capsid protein (natural protein)
chain: MSTSGTGKMTRAQRRAAARRNRWTARVQPVIVEPLAAGQGKAIKAIAGYSISKWEASSDAITAKATNAMSITLPHELSSEKNKELKVGRVLLWLGLLPSVAGRIKACVAEKQAQAEAAFQVALAVADSSKEVVAAMYTDAFRGATLGDLLNLQIYLYASEAVPAKAVVVHLEVEHVRPTFDDFFTPVYR
In the case of B1, the “stoichiometry N” value [3] is reported as 180.
